The target in experiment [1] is RctB domain IV (RctB^IV, amino acids 532 to 658) (Vibrio cholerae N16961). Description: SEC; analytical SEC, Superdex 200 10/300, 50 mM Hepes, 200 mM NaCl, 2 mM MgCl2, 1 mM TCEP, calibrated with gel filtration standards. For orientation: In gel filtration, larger molecules generally elute earlier.
The target of experiment [2] is RctB, full length (Vibrio cholerae N16961). Put plainly: cryo-EM 2D class averages; RctB at 0.25 mg/ml in 50 mM Hepes, 200 mM NaCl, 2 mM MgCl2, 1 mM TCEP; reference-free 2D classification.
For experiment [3] the target is unchanged. Description: SEC; analytical SEC, Superdex 200 10/300, 50 mM Hepes, 200 mM NaCl, 2 mM MgCl2, 1 mM TCEP, calibrated with gel filtration standards.

Results on two substances are retold here after PMC11711613.

Several values for one entry are separate records, joined by “and”; a condition that tells them apart may be missing. Equal values may be shown once.

In turn, “RctB domain IV (RctB^IV, amino acids 532 to 658) (domain or fragment)” yielded a stoichiometry N in experiment [1] of 2. Take RctB, full length (natural protein): the stoichiometry N in experiment [2] was 2 and 4; in experiment [3], 2 and 4.

The stoichiometry N is a count of units in the complex or per binding partner.
